{"source": "patent US20080227698A1", "about": "“OLIGOPEPTIDES FOR TREATMENT OF OSTEOPOROSIS AND OTHER BONE DISEASES AND METHODS THEREOF” (Washington University, priority 2005, published 2008)", "key": {"LRP6": {"molecular_target": "LRP6 (Homo sapiens, UniProt O75581)", "sequence (O75581 20-1613)": "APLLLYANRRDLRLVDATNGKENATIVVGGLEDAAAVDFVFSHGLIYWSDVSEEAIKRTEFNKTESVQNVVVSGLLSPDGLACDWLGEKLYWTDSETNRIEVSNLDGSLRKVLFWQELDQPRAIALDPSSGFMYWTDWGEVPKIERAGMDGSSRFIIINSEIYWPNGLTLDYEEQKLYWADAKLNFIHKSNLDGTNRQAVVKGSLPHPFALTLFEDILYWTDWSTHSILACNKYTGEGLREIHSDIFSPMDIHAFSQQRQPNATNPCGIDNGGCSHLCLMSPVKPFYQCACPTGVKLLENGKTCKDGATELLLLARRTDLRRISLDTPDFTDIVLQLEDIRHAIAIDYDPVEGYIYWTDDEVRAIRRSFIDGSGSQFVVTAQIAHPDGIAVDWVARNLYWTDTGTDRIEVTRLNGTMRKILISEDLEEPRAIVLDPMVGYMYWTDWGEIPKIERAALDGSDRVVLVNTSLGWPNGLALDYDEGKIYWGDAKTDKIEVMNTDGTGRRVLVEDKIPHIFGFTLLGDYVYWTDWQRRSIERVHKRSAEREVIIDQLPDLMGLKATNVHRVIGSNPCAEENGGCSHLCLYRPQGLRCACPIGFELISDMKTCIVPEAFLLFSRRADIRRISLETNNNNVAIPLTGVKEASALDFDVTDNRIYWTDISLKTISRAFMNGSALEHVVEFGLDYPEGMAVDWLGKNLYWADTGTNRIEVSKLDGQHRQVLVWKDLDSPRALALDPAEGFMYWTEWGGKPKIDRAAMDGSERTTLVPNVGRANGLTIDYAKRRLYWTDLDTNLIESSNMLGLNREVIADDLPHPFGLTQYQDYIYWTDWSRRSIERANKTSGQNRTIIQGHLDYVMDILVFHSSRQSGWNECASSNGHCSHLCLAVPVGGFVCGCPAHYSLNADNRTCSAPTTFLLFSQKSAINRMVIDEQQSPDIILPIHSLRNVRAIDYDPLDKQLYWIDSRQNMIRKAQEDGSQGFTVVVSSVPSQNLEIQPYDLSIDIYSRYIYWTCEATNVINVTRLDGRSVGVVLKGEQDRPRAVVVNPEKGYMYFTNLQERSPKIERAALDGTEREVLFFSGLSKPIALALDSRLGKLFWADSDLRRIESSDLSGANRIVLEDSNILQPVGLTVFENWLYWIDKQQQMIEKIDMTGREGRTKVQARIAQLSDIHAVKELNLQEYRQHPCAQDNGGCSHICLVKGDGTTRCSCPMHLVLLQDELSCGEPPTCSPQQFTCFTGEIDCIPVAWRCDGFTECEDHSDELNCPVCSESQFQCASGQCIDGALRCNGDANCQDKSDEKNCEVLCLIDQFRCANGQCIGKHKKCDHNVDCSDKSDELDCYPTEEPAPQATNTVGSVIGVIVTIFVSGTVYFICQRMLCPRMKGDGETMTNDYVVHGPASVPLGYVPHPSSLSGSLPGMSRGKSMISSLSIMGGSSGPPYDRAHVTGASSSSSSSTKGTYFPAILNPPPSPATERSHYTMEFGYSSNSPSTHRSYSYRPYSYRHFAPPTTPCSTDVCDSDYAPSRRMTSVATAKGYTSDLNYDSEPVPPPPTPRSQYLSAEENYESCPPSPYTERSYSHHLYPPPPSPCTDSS", "assay": "^125I-RAP binding to LRP6-transduced HT1080 cells and control cells", "parameters": "plasmid pCS-Myc-hLRP6 containing the full-length human LRP6 cDNA; HA; expressed in transfected cells; host or cells: human HT1080 cells, stably transduced (pLNCX2 retroviral vector)", "procedure": "(§1) Cells (2×10^5) were seeded into 12-well dishes 1 day prior to assay. Ligand-binding buffer (minimal Eagle's medium containing 0.6% BSA with a different concentration of radioligand, 0.6 ml/well) was added to cell monolayers, in the absence or the presence of 500 nM unlabeled RAP or 500 nM unlabeled Mesd, followed with incubation for 0-4 hours at 4° C. Thereafter, overlying buffer containing unbound ligand was removed, and cell monolayers were washed and lysed in low-SDS lysis buffer (62.5 mM Tris-HCl pH 6.8, 0.2% SDS, 10% v/glycerol) and counted.\nReceptor-associated protein (RAP) binds with high affinity to LRP, megalin, VLDLR and apoER2, and with a lower affinity to the LDLR (Bu, G., Int. Rev. Cytol. 209, 79-116. 2001). To determine whether RAP and Mesd bind to identical, overlapping, or different sites on the receptors, binding and competition analysis of these two chaperones with HT1080 cells stably expressing LRP6 was performed.\nIn FIG. 8A, binding of ^125I-RAP (5 nM) to LRP6-transduced HT1080 cells and the control cells was carried out for 4 hours at 4° C. in the absence (total) or presence of 500 nM RAP, or 500 nM Mesd. In FIG. 8B, binding of ^125I-Mesd (5 nM) to LRP6-transduced HT1080 cells was carried out for 2 hours at 4° C. in the absence (total) or presence of various concentrations of RAP or 500 nM Mesd. (C) LRP6-mediated ^125I-Mesd (5 nM) degradation was carried out for 4 hours at 37° C. in the absence or presence of 500 nM Mesd or 500 nM RAP. Values are the means of triple determinations with the s.d. indicated by error bars."}, "LRP5": {"molecular_target": "LRP5 (Homo sapiens, UniProt O75197)", "sequence (O75197 32-1615)": "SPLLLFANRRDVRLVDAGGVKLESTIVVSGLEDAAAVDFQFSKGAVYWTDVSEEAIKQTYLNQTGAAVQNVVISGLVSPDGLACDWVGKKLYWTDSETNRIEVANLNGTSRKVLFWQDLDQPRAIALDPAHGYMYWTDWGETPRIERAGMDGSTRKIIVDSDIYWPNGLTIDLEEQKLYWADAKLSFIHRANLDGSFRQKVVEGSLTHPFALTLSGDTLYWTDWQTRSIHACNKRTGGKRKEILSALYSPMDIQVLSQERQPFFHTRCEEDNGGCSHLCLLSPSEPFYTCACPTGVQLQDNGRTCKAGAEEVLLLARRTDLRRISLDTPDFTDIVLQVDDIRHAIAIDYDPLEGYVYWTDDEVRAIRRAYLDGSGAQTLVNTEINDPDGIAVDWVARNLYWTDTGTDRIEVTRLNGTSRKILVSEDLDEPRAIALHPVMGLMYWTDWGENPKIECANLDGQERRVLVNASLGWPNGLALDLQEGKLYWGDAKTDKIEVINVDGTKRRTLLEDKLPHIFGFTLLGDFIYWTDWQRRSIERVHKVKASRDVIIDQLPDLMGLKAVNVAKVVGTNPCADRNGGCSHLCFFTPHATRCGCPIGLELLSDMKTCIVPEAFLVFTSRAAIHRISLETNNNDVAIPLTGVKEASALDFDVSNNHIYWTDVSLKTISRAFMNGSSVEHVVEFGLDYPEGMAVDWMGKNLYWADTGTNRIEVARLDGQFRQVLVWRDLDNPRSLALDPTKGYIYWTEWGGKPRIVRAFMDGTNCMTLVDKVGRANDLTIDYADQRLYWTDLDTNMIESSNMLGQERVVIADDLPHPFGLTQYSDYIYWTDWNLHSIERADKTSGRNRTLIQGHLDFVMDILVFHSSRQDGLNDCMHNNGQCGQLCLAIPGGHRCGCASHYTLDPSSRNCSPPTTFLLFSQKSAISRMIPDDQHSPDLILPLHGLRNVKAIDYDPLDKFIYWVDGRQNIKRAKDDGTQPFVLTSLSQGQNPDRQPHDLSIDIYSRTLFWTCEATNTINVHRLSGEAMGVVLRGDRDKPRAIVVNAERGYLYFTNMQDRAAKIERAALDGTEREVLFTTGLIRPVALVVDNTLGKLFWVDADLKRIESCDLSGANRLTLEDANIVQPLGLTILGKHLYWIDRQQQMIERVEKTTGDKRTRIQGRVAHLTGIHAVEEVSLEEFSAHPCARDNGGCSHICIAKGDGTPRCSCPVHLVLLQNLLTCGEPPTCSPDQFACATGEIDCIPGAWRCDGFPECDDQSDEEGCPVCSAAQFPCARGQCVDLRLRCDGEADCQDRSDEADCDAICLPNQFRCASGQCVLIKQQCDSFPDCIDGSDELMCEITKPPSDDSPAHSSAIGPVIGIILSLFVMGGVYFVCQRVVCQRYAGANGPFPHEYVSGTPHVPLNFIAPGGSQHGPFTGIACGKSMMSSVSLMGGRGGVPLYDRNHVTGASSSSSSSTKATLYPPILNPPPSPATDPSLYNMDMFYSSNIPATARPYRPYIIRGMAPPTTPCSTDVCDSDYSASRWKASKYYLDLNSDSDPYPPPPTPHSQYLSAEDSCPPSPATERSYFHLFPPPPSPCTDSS", "assay": "^125I-Mesd binding to HEK293 cells transiently transfected with LRP5", "conditions": "^125I-Mesd 5 nM, 4 hours at 4° C., HEK293 cells transfected with Myc-tagged LRP5", "procedure": "as §1\n(§2) To determine whether Mesd binds to other members of the LDLR family, ^125I-Mesd binding analysis was performed with four groups of cells expressing different members of the LDLR family (FIG. 2). In the first experiment, HEK293 cells were transiently transfected with cDNAs for the LDLR, LRP5, LRP6 or empty pcDNA3 vector. […]"}, "[1]": {"molecular_target": "T1, other members of the LDLR family (LDLR, LRP, LRP1 B, VLDLR, apoER2) (Homo sapiens, UniProt Q07954)", "T1 construct": "expressed in transfected cells; host or cells: HEK293 (transient HA-LDLR); also endogenous receptors in MEF lines, MCF-7, U87 and SMC", "assay": "^125I-Mesd binding to cells expressing other members of the LDLR family", "conditions": "^125I-Mesd 5 nM, 4 hours at 4° C.", "procedure": "as §1, §2"}, "[2]": {"tested_on": "other members of the LDLR family (LDLR, LRP, LRP1 B, VLDLR, apoER2)", "assay": "^125I-Mesd binding to cells expressing other members of the LDLR family", "parameters": "species or system human", "conditions": "^125I-Mesd 5 nM, 4 hours at 4° C., HEK293, CHO, MEF cells", "procedure": "as §1, §2"}}}
{"molecule": "Mesd: recombinant wild-type mouse Mesd, polyhistidine tail at the N-terminus, lacks the signal peptide, expressed in E. coli (protein, left off: small tags and cut ends, recombinant wild-type mouse Mesd, polyhistidine tail at the N-terminus, lacks the signal peptide, expressed in E. coli) ADTPGEATPPPRKKKDIRDYNDADMARLLEQWEKDDDIEEGDLPEHKRPSAPIDFSKLDPGKPESILKMTKKGKTLMMFVTVSGNPTEKETEEITSLWQGSLFNANYDVQRFIVGSDRAIFMLRDGSYAWEIKDFLVSQDRCAEVTLEGQMYPGKGGGSKEKNKTKPEKAKKKEGDRKPRASKEDNRAGSRREDL", "values": [{"measurement": "Effect of excess unlabeled competitor on ^125I-RAP binding to control cells", "setting": "LRP6; 500 nM competitor, control cells expressing vector alone, 4° C.", "result": "not"}, {"measurement": "Effect on the LRP6-dependent increase of ^125I-RAP binding", "setting": "LRP6; excess unlabeled Mesd (500 nM), 4 hours at 4° C.", "result": "abolished"}, {"measurement": "Specific ^125I-Mesd binding to LRP5", "setting": "LRP5", "result": "specifically binds to Mesd, albeit at lower levels compared to LRP6"}, {"measurement": "Specific Mesd binding to U87 or SMC (express abundant LRP)", "setting": "[1]", "result": "minimal"}, {"measurement": "^125I-Mesd binding to other members of the LDLR family", "setting": "[2]", "result": "not significantly"}]}
